According to patent US20190352381A1 (Alexion, published 2019):
Positions count from the first letter of the chain named. Names may count otherwise. Like-named read-outs stand apart in the source and are kept apart here.

Assays:
human properdin [1] = biological target: T1, human properdin (human, UniProt P27918 28-469); experiment: cell-based or functional assay
human properdin [2] = biological target: T1, human properdin; experiment: binding kinetics, biotinylated properdin capture method
Cynomolgus Albumin [3] = biological target: T2, Cynomolgus Albumin (cynomolgus, UniProt A2V9Z4 25-608); experiment: binding kinetics at pH 6.0
human properdin [4] = biological target: T1, human properdin; experiment: binding kinetics at pH 6.0
Human Albumin [5] = biological target: T3, Human Albumin (human, UniProt P02768 25-609); experiment: binding kinetics at pH 6.0
Cynomolgus Albumin [6] = biological target: T2, Cynomolgus Albumin; experiment: binding kinetics at pH 7.4
human properdin [7] = biological target: T1, human properdin; experiment: binding kinetics at pH 7.4
Human Albumin [8] = biological target: T3, Human Albumin; experiment: binding kinetics at pH 7.4
cynomolgus properdin [9] = biological target: T4, cynomolgus properdin (cynomolgus, UniProt A0A2K5V0Z6 29-470); experiment: binding kinetics at pH 7.4
T4 construct: properdin of cynomolgus serum in the hemolysis assays; also called biotinylated cynomolgus properdin

human properdin [10] = biological target: T1, human properdin; experiment: sensorgram kinetics (RU), biotinylated properdin capture method
human properdin [11] = biological target: T1, human properdin; experiment: cell-based or functional assay; remark: listed apart in the source
human properdin [12] = biological target: T1, human properdin; experiment: binding kinetics, biotinylated properdin capture method; remark: listed apart in the source
cynomolgus properdin [13] = biological target: T4, cynomolgus properdin; experiment: as above
human properdin [14] = biological target: T1, human properdin; experiment: cell-based or functional assay; remark: listed apart in the source
human properdin [15] = biological target: T1, human properdin; experiment: Octet bio-layer interferometry; streptavidin biosensors loaded with biotinylated human properdin, construct at 10 ug/mL
Protocol: All washes, dilutions, and measurements were performed in Kinetic buffer (FortéBio cat 185032) with the plate shaking at 1000 rpm. Streptavidin Biosensors (Forté Bio Cat:18-5019 lot: 1405301) were equilibrated in Kinetic buffer for 10 min and then loaded with 50 nm of biotinylated human properdin. For the association phase, 10 μg/mL of selected anti-properdin antibody or kinetics buffer blank was added to the biosensors preloaded with biotinylated human properdin, respectively.

B1: TPP-2221 (LVP058_hG2-G4, VHH on silent human Fc) (Fc fusion)
chain: LEVQLVESGGGLVQAGGSLRLSCAASGRISSIIHMAWYRQAPGKQRELVAEISRVGTTVYADSVKGRFTISRDDAKNTVTLQMNSLKPEDTAVYYCNALQYEKHGGADYWGQGTQVTVSSRKCCVECPPCPAPPVAGPSVFLFPPKPKDTLMISRTPEVTCVVVDVSQEDPEVQFNWYVDGVEVHNAKTKPREEQFNSTYRVVSVLTVLHQDWLNGKEYKCKVSNKGLPSSIEKTISKAKGQPREPQVYTLPPSQEEMTKNQVSLTCLVKGFYPSDIAVEWESNGQPENNYKTTPPVLDSDGSFFLYSRLTVDKSRWQEGNVFSCSVMHEALHNHYTQKSLSLSLGK
IC50 (read off the curve) (human properdin [1]): ~10 nM

B2: TPP-2223 (Anti-properdin control antibody without C1q binding domain) (antibody, human IgG1, kappa, V domains shown)
VH: QVQLVQSGAEVKKPGASVKVSCKASGYIFTNYPIHWVRQAPGQGLEWMGFIDPGGGYDEPDERFRDRVTMTRDTSTSTVYMELSSLRSEDTAVYYCARRGGGYYLDYWGQGTLVTVSS
VL: DIQMTQSPSSLSASVGDRVTITCRASQDISFFLNWYQQKPGKAPKLLIYYTSRYHSGVPSRFSGSGSGTDFTLTISSLQPEDFATYYCQHGNTLPWTFGQGTKVEIKR
IC50 (read off the curve) (human properdin [1]): ~9 nM

B3: TPP-2224 (LVP058 (G4S)3-anti-Alb-tandem VHH) (bispecific antibody)
chain: LEVQLVESGGGLVQAGGSLRLSCAASGRISSIIHMAWYRQAPGKQRELVAEISRVGTTVYADSVKGRFTISRDDAKNTVTLQMNSLKPEDTAVYYCNALQYEKHGGADYWGQGTQVTVSSGGGGSGGGGSGGGGSEVQLVESGGGLVKPGGSLRLSCAASGRPVSNYAAAWFRQAPGKEREFVSAINWQKTATYADSVKGRFTISRDNAKNSLYLQMNSLRAEDTAVYYCAAVFRVVAPKTQYDYDYWGQGTLVTVSS
IC50 (read off the curve) (human properdin [1]): ~20 nM

B4: TPP-2225 (anti-Albumin LVP058 (G4S)3 Linker) (bispecific antibody)
chain: EVQLVESGGGLVKPGGSLRLSCAASGRPVSNYAAAWFRQAPGKEREFVSAINWQKTATYADSVKGRFTISRDNAKNSLYLQMNSLRAEDTAVYYCAAVFRVVAPKTQYDYDYWGQGTLVTVSSGGGGSGGGGSGGGGSLEVQLVESGGGLVQAGGSLRLSCAASGRISSIIHMAWYRQAPGKQRELVAEISRVGTTVYADSVKGRFTISRDDAKNTVTLQMNSLKPEDTAVYYCNALQYEKHGGADYWGQGTQVTVSS
notes: Single chain: anti-albumin VHH, (G4S)3 linker, non-humanized anti-properdin VHH LVP058; also called anti-Alb-LVP058
Kd (human properdin [2]): 0.172 nM | koff (human properdin [2]): 0.000349 s⁻¹ | kon (human properdin [2]): 2.03e+06 M⁻¹ s⁻¹ | IC50 (read off the curve) (human properdin [1]): ~10 nM | Kd (Cynomolgus Albumin [3]): 2.3 nM | Kd (human properdin [4]): 2.57 nM | Kd (Human Albumin [5]): 0.646 nM | Kd (Cynomolgus Albumin [6]): 7.07 nM | Kd (human properdin [7]): 0.172 nM | Kd (Human Albumin [8]): 0.774 nM | Kd (cynomolgus properdin [9]): 1.98 nM

B5: AB008 (VHH)
VHH: QVQLVESGGGLRQTGESLRLSCTASGRIFEVNMMAWYRQAPGKQRELVAEISRVGTTTYADSVKGRFTISRDSAKNTVTLQMNSLKSEDTAVYYCNALQYDRYGGAEYWGQGTQVTVSG
notes: Llama VHH, cloned and expressed with a 6x histidine tag; also called anti-properdin VHH AB008
Kd (human properdin [10]): 0.803 nM | koff (human properdin [10]): 0.00169 s⁻¹ | kon (human properdin [10]): 2.11e+06 M⁻¹ s⁻¹

B6: AB005 (VHH)
VHH: B5 VHH with L4V, E16G, T58V, G119S
IC50 (read off the curve) (human properdin [11]): ~20 nM

B7: AB006 (VHH)
VHH: B5 VHH with V5A, R12V, T14A, E16D, R19K, Q44D, D101S
IC50 (read off the curve) (human properdin [11]): ~30 nM

B8: TPP-2951 (Humanized anti-Albumin LVP058 (G4S)3 Linker (7-backmutations)) (bispecific antibody)
chain: EVQLVESGGGLVKPGGSLRLSCAASGRPVSNYAAAWFRQAPGKEREFVSAINWQKTATYADSVKGRFTISRDNAKNSLYLQMNSLRAEDTAVYYCAAVFRVVAPKTQYDYDYWGQGTLVTVSSGGGGSGGGGSGGGGSEVQLLESGGGLVQPGGSLRLSCAASGRISSIIHMAWFRQAPGKERELVSEISRVGTTVYADSVKGRFTISRDNSKNTLYLQMNSLKPEDTAVYYCNALQYEKHGGADYWGQGTLVTVSS
notes: Single chain: anti-albumin VHH, (G4S)3 linker, humanized LVP058 with 7 back mutations
Kd (human properdin [2]): 0.301 nM | koff (human properdin [2]): 0.000567 s⁻¹ | kon (human properdin [2]): 1.88e+06 M⁻¹ s⁻¹ | Kd (human properdin [12]): 0.322 nM | koff (human properdin [12]): 0.000574 s⁻¹ | kon (human properdin [12]): 1.78e+06 M⁻¹ s⁻¹ | Kd (cynomolgus properdin [13]): 2.33 nM | koff (cynomolgus properdin [13]): 0.00426 s⁻¹ | kon (cynomolgus properdin [13]): 1.82e+06 M⁻¹ s⁻¹ | IC50 (read off the curve) (human properdin [14]): ~30 nM | Kd (human properdin [7]): 0.301 nM | Kd (cynomolgus properdin [9]): 2.33 nM

B9: TPP-3261 (Humanized anti-Albumin LVP058 (G4S)3 Linker (3-backmutations)) (bispecific antibody)
chain: B8 chain with L143V, F175V, E182Q, K224R, P225A
notes: Single chain: anti-albumin VHH, (G4S)3 linker, humanized LVP058 with 3 back mutations
Kd (human properdin [12]): 0.485 nM | koff (human properdin [12]): 0.000834 s⁻¹ | kon (human properdin [12]): 1.72e+06 M⁻¹ s⁻¹ | Kd (cynomolgus properdin [13]): 3.08 nM | koff (cynomolgus properdin [13]): 0.00587 s⁻¹ | kon (cynomolgus properdin [13]): 1.91e+06 M⁻¹ s⁻¹ | Kd (human properdin [7]): 0.485 nM | Kd (cynomolgus properdin [9]): 3.08 nM

B10: TPP-3071 (anti-Albumin LVP058 (G4D)2 (G4) Linker) (bispecific antibody)
chain: EVQLVESGGGLVKPGGSLRLSCAASGRPVSNYAAAWFRQAPGKEREFVSAINWQKTATYADSVKGRFTISRDNAKNSLYLQMNSLRAEDTAVYYCAAVFRVVAPKTQYDYDYWGQGTLVTVSSGGGGDGGGGDGGGGEVQLVESGGGLVQAGGSLRLSCAASGRISSIIHMAWYRQAPGKQRELVAEISRVGTTVYADSVKGRFTISRDDAKNTVTLQMNSLKPEDTAVYYCNALQYEKHGGADYWGQGTQVTVSS
notes: Single chain: anti-albumin VHH, (G4D)2 G4 linker, non-humanized LVP058
binding result (human properdin [15]): binds

B11: TPP-3072 (anti-Albumin LVP058 (G4E)2 (G4) Linker) (bispecific antibody)
chain: B10 chain with D128E, D133E
IC50 (read off the curve) (human properdin [14]): ~20 nM

B12: AB007 (VHH)
VHH: QVQLVESGGGLVQAGGSLRLSCAASGRISSIIHMAWYRQAPGKQRELVAEISRVGTTVYADSVKGRFTISRDDAKNTVTLQMNSLKPEDTAVYYCNALQYEKHGGADYWGQGTQVTVSG
notes: Llama VHH, cloned and expressed with a 6x histidine tag; also called anti-properdin VHH AB007
Kd (human properdin [10]): 0.344 nM | koff (human properdin [10]): 0.000359 s⁻¹ | kon (human properdin [10]): 1.04e+06 M⁻¹ s⁻¹
